Laboratory results taken from a protein production outcome set (Wang et al. 2014).

Experiment: label from the status in PepcDB records
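Also: failed if final PepcDB status was selected cloned or expressed and not failed if soluble or beyond.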

**Q.** For “MEIFFTILIMTLVVSLSGVVTRVMPFQIPLPLMQIAIGALLAWPTFGLHVEFDPELFLVLFIPPLLFADGWKTPTREFLEHGREIFGLALALVVVTVVGIGFLIYWVVPGIPLIPAFALAAVLSPTDAVALSGIVGEGRIPKKIMGILQGEALMNDASGLVSLKFAVAVAMGTMIFTVGGATVEFMKVAIGGILAGFVVSWLYGRSLRFLSRWGGDEPATQIVLLFLLPFASYLIAEHIGVSGILAAVAAGMTITRSGVMRRAPLAMRLRANSTWAMLEFVFNGMVFLLLGLQLPGILETSLMAAEIDPNVEIWMLFTNIILIYAALMLVRFGWLWTMKKFSNRFLKKKPMEFGSWTTREILIASFAGVRGAITLAGVLSIPLLLPDGNVFPARYELVFLAAGVILFSLFVGVVMLPILLQHIEVADHSQQLKEERIARAATAEVAIVAIQKMEERLAADTEENIDNQLLTEVSSRVIGNLRRRADGRNDVESSVQEENLERRFRLAALRSERAELYHLRATREISNETLQKLLHDLDLLEALLIEENQ”, which protein production is on record?
**A.** failed

**Q.** For “MEIHYAAKQDKCLVRPVIRDHTGSQSYRSTTSILTDHLRRNHHSHGAIASRDYLSYSWNSQLRRFSSEGDGNNASEDSRFPLNKDKMGKEKSTVGVEHFDSHAQLGVQDQIEWLNNEKRASESRKESPFLNKRERLKNEFLRRIQPWETIQLSWESFPYYVHEHTKDTLVECVSSHIKQKSMTSKYGARLDSSSGRILLQSVPGTELYRERLVRALARDTQVPLLVLDSSVLAPYDFADDYNEESESDDDIAESDQCTSQSEAEEETDGDNDDTSSSETKIEGTDDEERYLEISKEVLKKLGADIEDIEKRMSEQLYGSSEVSEAAAVDQDDKAKRPLKKGSQFVTCALCYLHQMMSV”, which protein production is on record?
**A.** failed

**Q.** For “MEIMEFEEAFKEVYEMVKPKYKLFTAGPVACFPEVLEIMKVQMFSHRSKEYRKVHMDTVERLREFLEVEKGEVLLVPSSGTGIMEASIRNGVSKGGKVLVTIIGAFGKRYKEVVESNGRKAVVLEYEPGKAVKPEDLDDALRKNPDVEAVTITYNETSTGVLNPLPELAKVAKEHDKLVFVDAVSAMGGADIKFDKWGLDVVFSSSQKAFGVPPGLAIGAFSERFLEIAEKMPERGWYFDIPLYVKYLKEKESTPSTPPMPQVFGINVALRIIEKMGGKEKWLEMYEKRAKMVREGVREIGLDILAEPGHESPTITAVLTPPGIKGDEVYEAMRKRGFELAKGYGSVKEKTFRIGHMGYMKFEDIQEMLDNLREVINELKKQKGIN”, which protein production is on record?
**A.** not failed

**Q.** With “MEISNRLKSISEVMDRCEIAADIGTDHAYLPIYLIKNNLCKRFIASDVNAGPLKKAINNINKYKLEDKIECRLGSGLNVLKLEEVDVVVIAGMGGNLIRDIIEERLDIFKKLKYAVLQPVQNPEILREYLIKRGFNIIEEQLCIDESKYYEIIKVCYDSKIEDKDDVYYEIGDKLIDMKHPLLKEYINYKIRKYDKIYKNISEESLNALSRKNELSIKIRKLKELLSCL” as the sequence, how does the protein production read?
**A.** failed

**Q.** With “MEITTLQIVLIFIVACVSGMGSILDEFQFHRPLVACTLIGAVLGDLKTGIIIGGTLEMIALGWMNIGAAVAPDAALASIISTILVIAGGQGIGAGIALAIPLAAAGQVLTIIVRTITVAFQHAADSAAERGNLTAISWIHVSALLLQAMRIAIPAVIVAVSVGTDTVHALLNSIPDVVTNGLNIAGGMIVVVGYAMVINMMRAGYLMPFFYLGFVTAAFTEFNLVALGVIGIVMAVLYIQLSPKYNKVQGQSVTSGNNGLDNELD” as the sequence, how does the protein production read?
**A.** failed

**Q.** For “MEKAPLLLETVEQAVRILQESPFVAIWNYKVLSVQAGAVALALPAQPQFYRPGGIIQGGCLMTLADTAFWLAAMTELGIDAPIVTLEMKTHFLRAAQADVYCRAEVMKSGRRVTYGTATITDAAGQTLSHHTLTYLAALEHHHHHH”, which protein production is on record?
**A.** failed

**Q.** For “MEKENDENITKKLSLKKVLFNSLFVSLSILVLGFVINYKYAVGYIFILVIHELGHYIIAKFLKVSVAFGGFTPVGAYIIHENPKNCKENALIAMGGPLFGGLLGLIYYIVYYVTGNNTFLVLTFTSIILNLGNLIPVSPLDGGQIAEAISPTLCYIGFPVLIYLFILLNSLKSKILLLFIIVAGIYQTYYFTMKYKTDPYYKLDKPSKIKFIFIYSILVLSLTISAIYLYNSFDFKDIFHSIARFK”, which protein production is on record?
**A.** failed

**Q.** Which protein production does the source give for “MEKFTVSKRHWLLLWGLQLGLAGGAAPVFSQAVLPYTPNLDQQQLEDQGLALTEDVVQLVRFQQYDLAFPRAKLATQLAPEQFQTWFILGTLYLQQEEVEPGITVLKKAEALAPEEAGIKFTLGNAYFQKGQYDQAVEVLLAGLAQRPDTPAALFDLGNAYLKLVKYPDAVTAYQKALKAEEQFWPALNNIGLIEYEQGKIDTALKRWQEVIKIDSEQPEPQLAIAVALYKQGKTEEGLRKAQDALNLDSRYGEIDFLVKNLWGEQLIADTKALFATPTMVEVLRTLPPPSDDL” here?
**A.** failed

**Q.** For “MEKIIVVKYRDVKLKSPILIGGLPGIGNVGKIAADYIVEKLNMVKIYDIFSEYLPPQVFINDDSEIHLVRNSIYYKKMRGKHDLLVLGGDFQGTTQEAQYELSYKMLELAKDMNVSEVYTLGGYSVGKIVERPRVLGAVTDKKLIPELEKNGVIFPKGEPGGGIVGSAGLILGLGMEIFKINGACLMGETSGYFADPKSAMEVLNVLQKQIGIKIDMSDIETRSKQIEQITGKMQEEFQNKQGKEDLGYFG”, which protein production is on record?
**A.** failed

**Q.** With “MEKKANHGDDVQESVPIIHSQVVKIKREFEKIQHPSLKQPEMPLVFREIMGPRRSRSPLGLGERERSIPVGN” as the sequence, how does the protein production read?
**A.** failed

**Q.** For “MEKKKVTIPQVCHGHSRPVVDLFYSPITPDGFFLISASKDSHPMLRNGETGDWIGTFEGHKGAVWSSCLDNNALRAASASADFSAKLWDALTGDVLHSFEHKHIVRACAFSEDTKSLLTGGFEKILRVFDMNRLDAPPTEVDKSPGSIRTLTWLHSDQTILSSCTDIGGVRLWDVRSGKIVQTLETKSPVTSAEVSQDGRYITTADGSTVKFWDANHFGLVKSYDMPCNIESASLEPKSGEKFVAGGEDMWVRVFDFYTGEEIGCNKGHHGPVHCVRFTPTGLSYASGSEDGTIRIWQTTPANPEENETSSRRVKHSVDEVSKKIEGFHINKEGKTAEKPSDT”, which protein production is on record?
**A.** failed

**Q.** For “MEKKLAPQFDNFYQSCRRYFQKLSRNKNFRSLKVYLLILTIVMVVIINPLSSNISGIVNILPTTTEKITHKSSAQQTDKQSHKTSNKAAYKTSWIGNTFGGKKWVQIQMEGIYVTPNGTVYVNSHWDEAGREVGIYKDGDVIGKADDLHGWGRLGGKAITANQKYLYVAMRQSHEGKPEDDYPPKGTTWYNVRRYDLSGKPAPFAGGRGWDKSMLIVNSKNDVTGLATKDKELYVSDPANDRLRVYNTDTMQELRSFSVPNPGAIAVDRQNNLWVVQKKKIVRYSPQGKQLAQQITDVANPSAIAFDPQGRLLVADNGKRQQVLIYNIANKPKQVGTLGDKGGIYGGTSGEVKDGKLYGITGVGTDKSGNIYVSNHGFNSTGADLRKFSSSGKLQWRLLGLQFIDNADADPDSDGRDVFTKNEHFVMDYSKNNGKEWTYKGYTLDKFRYPDDGRLHTTPTSAFVRRLGGKRLLYLSSEMMAERLLIYRFDGEIAVPCGIFGKNHLSWPPNQPKDGSWLWRDVNGDGSIQNNEYKTLGEEDGSVWGWEIDSKGDIWQAAEAGYIKHYPYQKLDNHGCPIYGQAVGGRIPMPAPFKTLTRIKYFPKQDVMYLGGYTNEHPNLDGDWGLVGTEIVRYDNWSKKRNLRWRIVLPYNHQTDPKLHIKSIDVAGDRVFAVASKKAEVYVYKATTGEALQMLTPGAEVGGESGWIDIPYGIRAFRRANGEYLVFVEENAKGKVLMYRLPG”, which protein production is on record?
**A.** failed

**Q.** With “MEKKLTVNVSDTERIASVLAGSYFMYRSLKRQPKNYAAIASAGLLLFRGVTGHCPGYSAAGKKTLPAPVHNIDIETSVIVNRPVDTVYSFWRRLENLPLFMTHLKSVKQKDHNKSDWEAYLPGGIGSIHWEAKIVKDKPGKVIAWSSLENSTIHNAGKVMFEDIGELGTVINVVISYQAPLGVAGEKVLALLTPTFEKMIRKDIVNFKQYIETGKLPTDKEYAENGKSQFE” as the sequence, how does the protein production read?
**A.** failed

**Q.** Which protein production does the source give for “MEKLENFWTRDELNTFFDYVTPERDVEQFTMFRVLAYSGIRKGELLALTWKDINFEDNTLRVNKTLTQGLGGKLIVQPPKSRAGRRTIDLDDSTMRYLRQWKGVQRETFLGMGFNTNNVDQLVFASNRNHFRSMNTPTKWLNKAIKATGLKHISIHGFRHTHASLLYQSGVGLKETQQRLGHSRADSSVTLDVYTHTTEQQNVAALQRFENYVEAKLEHHHHHH” here?
**A.** failed

**Q.** For “MEKPDIQRLTNFLIVYTKTLLGAGTYTARVAKCVGRIAEVYGYEININFFFHHITLNVVDMDDNSIQRTYVIPNHHAHVNFKLIFDLSALSWAIYDHKYDLEKAKVVFEQISQQKKHSYLLNLLFVSMANSAFCRLFGGDFGAGNLVFFATFVGLLLRYILTKAKIDLRIQYILCSFISSWFVFFGLDMGYTNTSDVALGSSILYLIPGVFFINSVIDILKDHILMGLSRIISVAILICCIALGIYMTLSISDFGILR”, which protein production is on record?
**A.** failed

**Q.** For “MEKQKEVQKEYEEYQYMLDTETWKKELSQFKLSSSEKISKNPKVSIIIANYNNAPYLKKMMDSLVQQTIGIEQLQVMFIDDCSTDHSLKVIEPYLERYPNIEIYQLLENTGGAHGPRNVGIVNARGEYSVFLDADDWYDLNALKYLSDLLDDSHDDFAVSGLIQSTDGHLMLKSKPYYVDGSFKNRSIQELPAEFYGWLGPQAIMLRTSLIHNNNLHFVNQRVADDVLFFYEAMRFSKTITQGERLTTYLNRDADNESLSKSINRTFMLSWLRALSYINQQFPDDLSKERMLARRLEWLIYDFCIRRNTGYPFSKRRLQDFKVQMDQYLGELNFDPSPYFRSDVRQIIWTFLQTNDIDGLYWFIQCQSIRWVLVNRFGYVSKTERSYYYPRLLKRFPAVRMNAYAEATQREGNTLSLNVYTHQKITGFEIKELKNPFETRQRLAFKKISETSYQVELPEKFSNKESRFTIVFDNYLEIGVKDFSKFFALEHHHHHH”, which protein production is on record?
**A.** failed

**Q.** For “MEKREEAGEYHSKDFEWEFLKNIVENDPSLSHHLHHHHQNLSKYLPDSQPWQDFHSRHSSGKFFKERRYLLKEFPELVSCGENSKLLEIGCGNGSTVLPILRGSKNITVYACDCSSDALVRTKENIDRAISSVDNFHSFCCDFSTSEFPDWVACDRCRDKFMLNHSGGSESKHCIGGVDFVTLIFTLSAVPKERMPRAIKECFAVLKPGGLLLFRDYGLYDMTMLRFEPEKRVGFREYVRSDGTLSYFFCLDTARKLFTDAGFIEVELEYCCVKAVNRRKGKDMYRVWVHGKFQKPFSN”, which protein production is on record?
**A.** failed

**Q.** For “MEKRQFMKMKEKLKRACFEFAVSNRYLYNLAKRILDSSPKLQKIKEFLIPKEFLIPAANLSNVFEPETSFQNSGRFFKKIKTCFNGGLPPENLDQDLAIINQRWNVNNEGYQIFSHRKILGPFLVRGRRLVHGEVRRYVDPIFHLQREFNASVVRILNRTTEDLRVLSSKNDAIEGKLNTVEEKISGTVRKDEFKEFKDKIMINHDKLQTDFYELKNSLTKNLEELSSTVESIKAKIDTAEEKISGTDIHTSDYYFLFEEKFRGSRELVKARLRRYIPYFKGCRRVLDIGCGRGEFLELCKEEGIESIGVDINEDMIKFCEGKFNVVKSDAIEYLKSLPDKYLDGVMISHFVEHLDPERLFELLSLCYSKMKYSSYIVIESPNPTSLYSLINFYIDPTHKKPVHPETLKFILEYLGFRDVKIEFFEECEELTKLAKIDSNTVSEEVIRVINENIEKLNRILFGPQDYAIIAKK”, which protein production is on record?
**A.** failed

**Q.** Which protein production does the source give for “MEKSKKLPFEVDRRSVYKCVQCGTCRSVCPVFDVVGWESANTRGRMLIIKSLIEGRPPSEDVLSSLASCTTCGICAAKCPAGANPPEVVEAARAQLVKCGVTTDAQLEHHHHHH” here?
**A.** failed

**Q.** With “MEKSSFAAANMTIMSEPTTPTSQAHDSGASANVIATVETEIRQTARFPTRWTAISSALVVLLCVLALILVPIPFVARSPGQTVNLLSTNERGKPMIQVDGLTTRHGEGEMRMTTVSITRADSRLSMAEALVAHLRADHDVLQREAIYPPGRSPQQVDADESYMMDTSERDAAVAALRAAGQPVTEMPMVSAVSAAGPAHGKLAPGDLIEKVDGKPMASVLDVGKAVRKHTVGDTVVFVVLRNSSVKTIAVTTVSSVSDRRAPAVGVTIDTGYRYTPTITYNIPGDIVGPSAGLAMALSIYQMVAPNDLIGSLRIAGTGGISPDGNVVAIGGIQEKIAGAERDGAKIFLVPAGNCRDISGVETSMRLVKVSSLKDAIAAIQKIRAGGTGIPHC” as the sequence, how does the protein production read?
**A.** failed
